Experimental data reported in article PMC12636033, “Chemical Engineering of Transcription Factors Uncovered Cell-Permeable μMax Modulators”.

B1: dBr_Jan07_02651 (dsDNA)
DNA 1: TGCATAACGACCGGCACGTGCCTTTCATATGTATCTGTCTGTGTTCCGTTGTCCGTGCTG
DNA 2: CAGCACGGACAACGGAACACAGACAGATACATATGAAAGGCACGTGCCGGTCGTTATGCA
B2: dBr_Jan07_28926 (dsDNA)
DNA 1: CGCAGCCATTACCGCGTGGGAGTATTCGCCCGTACGGTCTGTGTTCCGTTGTCCGTGCTG
DNA 2: CAGCACGGACAACGGAACACAGACCGTACGGGCGAATACTCCCACGCGGTAATGGCTGCG
B3: dBr_Jan07_31948 (dsDNA)
DNA 1: TGTCATTACCTGTCCGAGCAGGACAAAAAACCACGTGTCTGTGTTCCGTTGTCCGTGCTG
DNA 2: CAGCACGGACAACGGAACACAGACACGTGGTTTTTTGTCCTGCTCGGACAGGTAATGACA
B4: dBr_Jan07_41742 (dsDNA)
DNA 1: AGAGTCATTGGGGAGGCAAAATTCCCACGTGTATCGGTCTGTGTTCCGTTGTCCGTGCTG
DNA 2: CAGCACGGACAACGGAACACAGACCGATACACGTGGGAATTTTGCCTCCCCAATGACTCT
B5: dBr_Jan07_20580 (dsDNA)
DNA 1: AAATACCTATCGATAACCACTCACGTGGTGGTTCGCGTCTGTGTTCCGTTGTCCGTGCTG
DNA 2: CAGCACGGACAACGGAACACAGACGCGAACCACCACGTGAGTGGTTATCGATAGGTATTT
B6: dBr_Jan07_23881 (dsDNA)
DNA 1: CATATTAGACCGGCGTATACGCACGTGGCGTAGATTGTCTGTGTTCCGTTGTCCGTGCTG
DNA 2: CAGCACGGACAACGGAACACAGACAATCTACGCCACGTGCGTATACGCCGGTCTAATATG
B7: dBr_Jan07_02368 (dsDNA)
DNA 1: CTGTAGAACTGGCATCTTCAATCCACCGCGTGGTGAGTCTGTGTTCCGTTGTCCGTGCTG
DNA 2: CAGCACGGACAACGGAACACAGACTCACCACGCGGTGGATTGAAGATGCCAGTTCTACAG
B8: dBr_Jan07_40749 (dsDNA)
DNA 1: CTTCATGTCGCCCGCGTGGGTTGCCACACCAAGTGCGTCTGTGTTCCGTTGTCCGTGCTG
DNA 2: CAGCACGGACAACGGAACACAGACGCACTTGGTGTGGCAACCCACGCGGGCGACATGAAG
B9: dBr_Jan07_25426 (dsDNA)
DNA 1: TCTCTGTGCGGCGGGGTCCATAGCACGCACGTGTTAGTCTGTGTTCCGTTGTCCGTGCTG
DNA 2: CAGCACGGACAACGGAACACAGACTAACACGTGCGTGCTATGGACCCCGCCGCACAGAGA
B10: dBr_Jan07_27306 (dsDNA)
DNA 1: ACTATACAGTTTATTCATACACGGGTGCCTGCACGTGTCTGTGTTCCGTTGTCCGTGCTG
DNA 2: CAGCACGGACAACGGAACACAGACACGTGCAGGCACCCGTGTATGAATAAACTGTATAGT
B11: dBr_Jan07_08390 (dsDNA)
DNA 1: GTATTGTTGCGTATGTCACGTGGTACAAAACCCAGGGTCTGTGTTCCGTTGTCCGTGCTG
DNA 2: CAGCACGGACAACGGAACACAGACCCTGGGTTTTGTACCACGTGACATACGCAACAATAC
B12: dBr_Jan07_13904 (dsDNA)
DNA 1: CGCTGCCCCATATTTGTCATGCGTTTGCGGCACGTGGTCTGTGTTCCGTTGTCCGTGCTG
DNA 2: CAGCACGGACAACGGAACACAGACCACGTGCCGCAAACGCATGACAAATATGGGGCAGCG
B13: dBr_Jan07_20372 (dsDNA)
DNA 1: TCGTTTGTACACGTGGGTTTGCAAGAGTAAGTGTCCGTCTGTGTTCCGTTGTCCGTGCTG
DNA 2: CAGCACGGACAACGGAACACAGACGGACACTTACTCTTGCAAACCCACGTGTACAAACGA
B14: dBr_Jan07_16170 (dsDNA)
DNA 1: TACTAGATTACTACAGACGTTTGCGATCACGTGCATGTCTGTGTTCCGTTGTCCGTGCTG
DNA 2: CAGCACGGACAACGGAACACAGACATGCACGTGATCGCAAACGTCTGTAGTAATCTAGTA
B15: dBr_Jan07_17567 (dsDNA)
DNA 1: CCAAGAGGACCACGTGCTTTGGTCTCTAACTCGTATGTCTGTGTTCCGTTGTCCGTGCTG
DNA 2: CAGCACGGACAACGGAACACAGACATACGAGTTAGAGACCAAAGCACGTGGTCCTCTTGG
B16: dBr_Jan07_06714 (dsDNA)
DNA 1: TTCCGCGTGGACGTGACATCGTAGACGATTACCCACGTCTGTGTTCCGTTGTCCGTGCTG
DNA 2: CAGCACGGACAACGGAACACAGACGTGGGTAATCGTCTACGATGTCACGTCCACGCGGAA
B17: dBr_Jan07_14817 (dsDNA)
DNA 1: AGCGAGAGGCTGCTCACTCGTGGCAACACCCACGTGGTCTGTGTTCCGTTGTCCGTGCTG
DNA 2: CAGCACGGACAACGGAACACAGACCACGTGGGTGTTGCCACGAGTGAGCAGCCTCTCGCT
B18: dBr_Jan07_10488 (dsDNA)
DNA 1: ACCTCGGACATGCACATTTGTCTTAAACCACGTGCGGTCTGTGTTCCGTTGTCCGTGCTG
DNA 2: CAGCACGGACAACGGAACACAGACCGCACGTGGTTTAAGACAAATGTGCATGTCCGAGGT
B19: dBr_Jan07_01836 (dsDNA)
DNA 1: GTCGAGAATCCAATACGCCACGTGCATACGTACGTCGTCTGTGTTCCGTTGTCCGTGCTG
DNA 2: CAGCACGGACAACGGAACACAGACGACGTACGTATGCACGTGGCGTATTGGATTCTCGAC
B20: dBr_Jan07_03394 (dsDNA)
DNA 1: ATGGACCAATTGCGCGGAATGACGTGTCGCGCACGTGTCTGTGTTCCGTTGTCCGTGCTG
DNA 2: CAGCACGGACAACGGAACACAGACACGTGCGCGACACGTCATTCCGCGCAATTGGTCCAT
B21: dBr_Jan07_17989 (dsDNA)
DNA 1: GTCACGTGAATGCGACCCGCCAATTGGAAATTAAATGTCTGTGTTCCGTTGTCCGTGCTG
DNA 2: CAGCACGGACAACGGAACACAGACATTTAATTTCCAATTGGCGGGTCGCATTCACGTGAC
B22: dBr_Jan07_36232 (dsDNA)
DNA 1: CCATGCCAACTAGGCGCACGTGATTGTTCGAGAACTGTCTGTGTTCCGTTGTCCGTGCTG
DNA 2: CAGCACGGACAACGGAACACAGACAGTTCTCGAACAATCACGTGCGCCTAGTTGGCATGG
B23: dBr_Jan07_17036 (dsDNA)
DNA 1: ACATTTCTCCGCTCGTCCCACATAGCGTCACGTGGGGTCTGTGTTCCGTTGTCCGTGCTG
DNA 2: CAGCACGGACAACGGAACACAGACCCCACGTGACGCTATGTGGGACGAGCGGAGAAATGT
B24: dBr_Jan07_32059 (dsDNA)
DNA 1: CCGGTCACTGCCGGTGATGCCCTGCTTTATCACGTGGTCTGTGTTCCGTTGTCCGTGCTG
DNA 2: CAGCACGGACAACGGAACACAGACCACGTGATAAAGCAGGGCATCACCGGCAGTGACCGG

Biological target: WT Max (Homo sapiens, UniProt P61244-2 13-93, M65Nle, norleucine written as M; other non-natural residues written as X)
Sequence (P61244 other isoform, or with tags, fused parts or gaps M65Nle): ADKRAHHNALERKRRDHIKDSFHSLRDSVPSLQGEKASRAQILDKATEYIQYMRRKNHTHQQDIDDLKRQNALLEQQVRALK
Experiment: PBM; 50-200 nM protein; PBS, 2% milk, BSA, salmon testes DNA, 0.02% Triton X-100
Conditions: chain copies: 2; label: surface-attached array probe

Binder	binding signal
B1	3.82 robust z of log adjusted intensity (ours), mean of two arrays
B2	3.92 robust z of log adjusted intensity (ours), mean of two arrays
B3	4.44 robust z of log adjusted intensity (ours), mean of two arrays
B4	4.07 robust z of log adjusted intensity (ours), mean of two arrays
B5	3.85 robust z of log adjusted intensity (ours), mean of two arrays
B6	4.35 robust z of log adjusted intensity (ours), mean of two arrays
B7	5.5 robust z of log adjusted intensity (ours), mean of two arrays
B8	4.44 robust z of log adjusted intensity (ours), mean of two arrays
B9	4.48 robust z of log adjusted intensity (ours), mean of two arrays
B10	3.99 robust z of log adjusted intensity (ours), mean of two arrays
B11	4.12 robust z of log adjusted intensity (ours), mean of two arrays
B12	3.73 robust z of log adjusted intensity (ours), mean of two arrays
B13	4.3 robust z of log adjusted intensity (ours), mean of two arrays
B14	5.85 robust z of log adjusted intensity (ours), mean of two arrays
B15	3.82 robust z of log adjusted intensity (ours), mean of two arrays
B16	4.26 robust z of log adjusted intensity (ours), mean of two arrays
B17	4.16 robust z of log adjusted intensity (ours), mean of two arrays
B18	4.16 robust z of log adjusted intensity (ours), mean of two arrays
B19	3.94 robust z of log adjusted intensity (ours), mean of two arrays
B20	3.89 robust z of log adjusted intensity (ours), mean of two arrays
B21	4.17 robust z of log adjusted intensity (ours), mean of two arrays
B22	4.03 robust z of log adjusted intensity (ours), mean of two arrays
B23	4.03 robust z of log adjusted intensity (ours), mean of two arrays
B24	4.08 robust z of log adjusted intensity (ours), mean of two arrays
